Assay results: patent US7371828

T1: MBP from bovine brain (Sigma), P02687
T1 chain: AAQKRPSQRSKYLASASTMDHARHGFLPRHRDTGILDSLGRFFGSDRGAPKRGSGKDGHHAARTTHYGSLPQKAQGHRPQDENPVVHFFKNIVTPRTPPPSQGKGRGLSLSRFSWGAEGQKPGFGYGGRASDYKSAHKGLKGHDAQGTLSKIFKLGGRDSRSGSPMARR


Target: T1, MBP from bovine brain (Sigma), P02687

Protein	MBP kinase activity (32P incorporation in MBP-containing polyacrylamide gel)	MBP phosphorylation assay
human ERK5 (hERK5) wild type protein (protein) MSSPPPGGSGFYRQEVTKTAWEVRAVYRDLQPVGSGAYGAVCSAVDGRTGAKVAIKKLYRPFGSELFAKLAYRELRLLKHMRHENVIGLLDVFTPDETLDDFTDFYLVMPFMGTDLGKLMKHEKLGEDRIQFLVYQMMKGLRYIHAAGIIHRDLKPGNLAVNEDCELKILDFGLARQADSEMTGYVVTRWYRAPEVILNWIAYTQTVDIWSVGCIMAEMITGKTLFKGSDHLDQLKEIMKVTGTPPAEFVQRLQSDEAKNYMKGLPELEKKDFASILTNASPLAVNLLEKMLVLDADIRLTAGEFLSHPYFESLHDTEDEPQVQKYDDSFDYFDRTLDEWKPCYLQRGAQLQASPAAGGQGLQGDASVKISGLRGGSEDHLHLPPERGLSLPP	A predominant signal is observed at 56 kD; A weaker signal at the position of the 44/46 kD bands	–
hERK5 Y185F mutant (protein) MSSPPPGGSGFYRQEVTKTAWEVRAVYRDLQPVGSGAYGAVCSAVDGRTGAKVAIKKLYRPFGSELFAKLAYRELRLLKHMRHENVIGLLDVFTPDETLDDFTDFYLVMPFMGTDLGKLMKHEKLGEDRIQFLVYQMMKGLRYIHAAGIIHRDLKPGNLAVNEDCELKILDFGLARQADSEMTGFVVTRWYRAPEVILNWIAYTQTVDIWSVGCIMAEMITGKTLFKGSDHLDQLKEIMKVTGTPPAEFVQRLQSDEAKNYMKGLPELEKKDFASILTNASPLAVNLLEKMLVLDADIRLTAGEFLSHPYFESLHDTEDEPQVQKYDDSFDYFDRTLDEWKPCYLQRGAQLQASPAAGGQGLQGDASVKISGLRGGSEDHLHLPPERGLSLPP	the lack of ^32P incorporation in lanes 5 and 6	this mutant is indeed kinase negative
